Experimental findings from the DeepSol protein solubility set are described below.

This data set is described as follows: soluble on expression in E. coli; label from the status in PepcDB or PDB records.
For the sequence “PDKEYHTLHWIIMGALSCATRTVQIMTPYFIPDRSLVSALVTTALRGVEVTLVLPEKNNLPFVHWATRAYLWELIQQGIRVFYQPPPFAHTKLFIVDGLWSMIGSANLDPRSLRLNFELNLEVYDRELAGTLSRHFAVTVARSRQVSLTEMDGR”, the “soluble on expression in E. coli” value is recorded as “not soluble”.

On to “AHHHHHHGSRGILDDIDKKIIEILQKDGKVPLREISKITGLAESTIHERIKRLRESGVIKKFTAVVNPEALGYNILAFILIKVKAGKYSEVASKLVKYPEIVEVYETTGDYDMVVKIRTKNSEELNNFLDMVGSIEGVEGTHTMIVLKVHKETTELPVK”, for which the “soluble on expression in E. coli” value is “soluble”.

On to “MGSDKIHHHHHHMGYKNILIDFDDTIVDFYDAEEWAFHYMANVFNHKATKDDFLTFKKINHQHWEAFQQNKLTKSEVLSERFVNYFKHHQMEVDGHRADVLFRNGLAEAKVKYFDQTLETIVELSKRHDLYIVTNGVTETQKRRLNQTPLHKYIKKIFISEETGYQKPNPEFFNYVFNDIGEDERQHSIIVGDSLTSDILGGINAGIATCWFNFRGFDHNPGIIPDYEINSWKQLNDIVR”, for which the “soluble on expression in E. coli” value is listed as “not soluble”.

In the case of “QTGGSFYEPFNNYNTGLWQKADGYSNGNMFNCTWRANNVSMTSLGEMRLSLTSPSYNKFDCGENRSVQTYGYGLYEVNMKPAKNVGIVSSFFTYTGPTDGTPWDEIDIEFLGKDTTKVQFNYYTNGVGNHEKIVNLGFDAANSYHTYAFDWQPNSIKWYVDGQLKHTATTQIPQTPGKIMMNLWNGAGVDEWLGSYNGVTPLYAHYNWVRYTKR”, the “soluble on expression in E. coli” value is reported as “soluble”.

In the case of “AHHHHHHGSRIVLAYSGGLDTSVILKLMQEKLGAEVITVTVDVGQKDDFEKIEEKAYKFGAVKHYYIDAKEEFAENYVCKAIKANALYENAYPLSTALARPLIVEKLVEVAKKEGAGIIAHGCTGKGNDQVRFNLGIKALMPEAEILQPVAEWNLTRDWEMEYAKKHGIPVSDKIYSIDENIWGRSIEGGVLEDPSIEPPEEVFEWTVSIEKAPDKPEYVTIGFENGVPVSLNGEKMKLLELILKLNEIAGKHGVGRIDHIEDRSVGIKSREVYEAPAAVTLIKAHQDLEKLTLTKWVIEFKSIVDSKWSWLVYNGLWYEPLRLALEGFIDEAEKAVNGEVTVKLWKGNAIVVGRKSDNALYDVKMATYEKFSTFDQKLAKGFIELFGMQSVLAYNMLHGVHSTSNISEIKEAIKTLE”, the “soluble on expression in E. coli” value is on record as “soluble”.

“MEQKKKKNIGFNIIKDDPTDGHRGFGAGALSLENVSPVIIDVEAGEAFVDMGAMHARSAVERGIKFLPDRSAVPNGKPYWIVWVTIERREDGPYYAGVTACEMTIDREARRGYKLLPEHVNRLDKSLKRHIIVDHMDAKSKRVLADFLKGHDIGMWNRSSDELKKGLEGEL”: the “soluble on expression in E. coli” value is recorded as “not soluble”.

For the sequence “MDVKLLAHTQLSEEFVNYLSVVFGIGDEGFDPTHGQVVALSAIRTCYSPNKPSRIVSLEGEKYFKGKATDGKGGKEVDRLIRHIVGSGHASTLEHLTYTFAVEGVSRALLAQLTRHRVGFSYSVQSQRYVRMGSNDKIGGFDYVVPETVKAKGEQVVNAYNEMMYKLQSGYDLLRTLGIPAEDARSVLPNAAATNLVLTVNLRGLLDFYNKRRKGKGAQAEIAELAEQLRQEVVKVEKWVDEFFWKWKVTEV”, the “soluble on expression in E. coli” value is given as “not soluble”.

With “MAHHHHHHMNLRSLVPSDKQLTEEQQSHIQDLQDEIDEIWSRRGDYKIDDKAWEHMPLFMETITEEDMQKNADCAALASIAYDEVPPEDIAESRKQHGNRAIQLALNPEQVNKENLARAAAHCYTEGLNAKCKDPILNSQLYANRSLAQYIIQNYGHGLEDAQRAIILNPDYSKAYYRAARCAERVKKYDLAIDLLSKGRCTNPPPEGIALEEFEELERVCREGMKKFQKKEKEDSIRTRVRAAETSSLMRALTSYGIRLSPTPEVSSEQMGVYGQHQPYFDAVGLLHVPILFMYDEYQQTDFMQDVTCDVSTAELLDEIMPFPWDDRGRYRHMNEVVVFFKIDDGVKMAEYYEVDLSWPLMEVFRSESYKMPMLLPVLHVVCRSSELLQHWKPQKPR”, the “soluble on expression in E. coli” value is listed as “not soluble”.
